This is an account of results in publication PMC12623983.

The assay has as its target ribosomes from HEK293 cells (80S ribosomes, empty ribosomes), P62750;P62906. Kind of assay: co-sedimentation assay with immunoblot quantification. To be noted: chain shown with the change, three independent replicates, read off a plot; for ratio to parent: NMT2 alone with ribosomes (no NAC), parent: est. 1.0; for response (normalized intensity): NMT2 with ribosomes in the presence of NAC, parent: est. 2.2. In general terms: A western blot detects proteins with antibodies after separation by electrophoresis.

B1: human NMT2 (N-myristoyltransferase 2), wild type, O60551 R306E; R324E; K327E (protein)
chain: MAEDSESAASQQSLELDDQDTCGIDGDNEEETEHAKGSPGGYLGAKKKKKKQKRKKEKPNSGGTKSDSASDSQEIKIQQPSKNPSVPMQKLQDIQRAMELLSACQGPARNIDEAAKHRYQFWDTQPVPKLDEVITSHGAIEPDKDNVRQEPYSLPQGFMWDTLDLSDAEVLKELYTLLNENYVEDDDNMFRFDYSPEFLLWALRPPGWLLQWHCGVRVSSNKKLVGFISAIPANIRIYDSVKKMVEINFLCVHKKLRSKRVAPVLIREITRRVNLEGIFQAVYTAGVVLPKPIATCRYWHRSLNPEKLVEVKFSHLSRNMTLQETMELYRLPDVTKTSGLRPMEPKDIKSVRELINTYLKQFHLAPVMDEEEVAHWFLPREHIIDTFVVESPNGKLTDFLSFYTLPSTVMHHPAHKSLKAAYSFYNIHTETPLLDLMSDALILAKSKGFDVFNALDLMENKTFLEKLKFGIGDGNLQYYLYNWRCPGTDSEKVGLVLQ
For the molecule B1, the ratio to parent amounted to 0.27 and the response (normalized intensity) was 0.3.

B2: human NMT2 (N-myristoyltransferase 2), wild type, O60551 R306E (protein)
chain: MAEDSESAASQQSLELDDQDTCGIDGDNEEETEHAKGSPGGYLGAKKKKKKQKRKKEKPNSGGTKSDSASDSQEIKIQQPSKNPSVPMQKLQDIQRAMELLSACQGPARNIDEAAKHRYQFWDTQPVPKLDEVITSHGAIEPDKDNVRQEPYSLPQGFMWDTLDLSDAEVLKELYTLLNENYVEDDDNMFRFDYSPEFLLWALRPPGWLLQWHCGVRVSSNKKLVGFISAIPANIRIYDSVKKMVEINFLCVHKKLRSKRVAPVLIREITRRVNLEGIFQAVYTAGVVLPKPIATCRYWHRSLNPEKLVEVKFSHLSRNMTLQRTMKLYRLPDVTKTSGLRPMEPKDIKSVRELINTYLKQFHLAPVMDEEEVAHWFLPREHIIDTFVVESPNGKLTDFLSFYTLPSTVMHHPAHKSLKAAYSFYNIHTETPLLDLMSDALILAKSKGFDVFNALDLMENKTFLEKLKFGIGDGNLQYYLYNWRCPGTDSEKVGLVLQ
Consider B2, for which the ratio to parent is 0.35 and the response (normalized intensity) stood at 0.85.

B3: human NMT2 (N-myristoyltransferase 2), wild type, O60551 R324E; K327E (protein)
chain: MAEDSESAASQQSLELDDQDTCGIDGDNEEETEHAKGSPGGYLGAKKKKKKQKRKKEKPNSGGTKSDSASDSQEIKIQQPSKNPSVPMQKLQDIQRAMELLSACQGPARNIDEAAKHRYQFWDTQPVPKLDEVITSHGAIEPDKDNVRQEPYSLPQGFMWDTLDLSDAEVLKELYTLLNENYVEDDDNMFRFDYSPEFLLWALRPPGWLLQWHCGVRVSSNKKLVGFISAIPANIRIYDSVKKMVEINFLCVHKKLRSKRVAPVLIREITRRVNLEGIFQAVYTAGVVLPKPIATCRYWHRSLNPRKLVEVKFSHLSRNMTLQETMELYRLPDVTKTSGLRPMEPKDIKSVRELINTYLKQFHLAPVMDEEEVAHWFLPREHIIDTFVVESPNGKLTDFLSFYTLPSTVMHHPAHKSLKAAYSFYNIHTETPLLDLMSDALILAKSKGFDVFNALDLMENKTFLEKLKFGIGDGNLQYYLYNWRCPGTDSEKVGLVLQ
For B3, the ratio to parent turned out to be 0.32 and the response (normalized intensity) came to 0.45.
